Test results taken from publication PMC2953525, “Subtle Alterations in PCNA-Partner Interactions Severely Impair DNA Replication and Repair” (PLoS Biology, 2010).
Changes are numbered by the printed parent chain.

What was measured:
Experiment in all cases: two-hybrid; quantitative Y2H: generation time of the YRG2 strains in liquid SC-Leu-Trp-His, given relative to cells expressing WT PCNA; average of at least 3 experiments
Settings in all cases: partners not purified
pol30-79 = target: T1, pol30-79 (yeast, UniProt P15873 1-258, IDCL DIDADFLKIEEL to DIDADFAKAEEL)
T1 construct: PCNA (POL30), yeast; the changes are then L126A and I128A; also called PCNA79; source: yeast two-hybrid fusion (pAD-GAL4, strain YRG2)
T1 sequence: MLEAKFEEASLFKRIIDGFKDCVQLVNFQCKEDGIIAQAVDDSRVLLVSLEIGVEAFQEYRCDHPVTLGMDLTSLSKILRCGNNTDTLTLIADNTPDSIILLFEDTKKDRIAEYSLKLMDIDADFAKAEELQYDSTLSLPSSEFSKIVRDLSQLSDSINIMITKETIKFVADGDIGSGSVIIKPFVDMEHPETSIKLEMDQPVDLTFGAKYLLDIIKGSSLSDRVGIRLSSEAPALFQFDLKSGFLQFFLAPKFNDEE

pol30-Rad27E6 = target: T2, pol30-Rad27E6 (yeast, UniProt P15873 1-258, IDCL DIDADFLKIEEL to DGDYDILKIREL)
T2 construct: PCNA (POL30), yeast; source: yeast two-hybrid fusion (pAD-GAL4, strain YRG2)
T2 sequence: T1 sequence with I121G, A123Y, F125I, A126L, A128I, E129R

pol30-Rad27L2 = target: T3, pol30-Rad27L2 (yeast, UniProt P15873 1-258, IDCL DIDADFLKIEEL to D––VDTLKITEL)
T3 construct: PCNA (POL30), yeast; two residues after the first aspartic acid of the IDCL are deleted; source: yeast two-hybrid fusion (pAD-GAL4, strain YRG2)
T3 sequence: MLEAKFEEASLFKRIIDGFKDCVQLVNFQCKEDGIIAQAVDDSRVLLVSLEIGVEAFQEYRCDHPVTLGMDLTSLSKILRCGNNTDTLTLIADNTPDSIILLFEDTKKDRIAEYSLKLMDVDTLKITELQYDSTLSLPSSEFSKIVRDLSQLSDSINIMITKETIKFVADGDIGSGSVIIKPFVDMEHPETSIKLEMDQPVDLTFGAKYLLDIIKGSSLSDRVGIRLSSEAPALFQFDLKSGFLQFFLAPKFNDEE

B1: Rad27 (natural protein, yeast, UniProt P26793 1-382, looked up)
chain: MGIKGLNAIISEHVPSAIRKSDIKSFFGRKVAIDASMSLYQFLIAVRQQDGGQLTNEAGETTSHLMGMFYRTLRMIDNGIKPCYVFDGKPPDLKSHELTKRSSRRVETEKKLAEATTELEKMKQERRLVKVSKEHNEEAQKLLGLMGIPYIIAPTEAEAQCAELAKKGKVYAAASEDMDTLCYRTPFLLRHLTFSEAKKEPIHEIDTELVLRGLDLTIEQFVDLCIMLGCDYCESIRGVGPVTALKLIKTHGSIEKIVEFIESGESNNTKWKIPEDWPYKQARMLFLDPEVIDGNEINLKWSPPKEKELIEYLCDDKKFSEERVKSGISRLKKGLKSGIQGRLDGFFQVVPKTKEQLAAAAKRAQENKKLNKNKNKVTKGRR
notes: Rad27 (endonuclease), yeast; also called pBD-Rad27; source: yeast two-hybrid fusion (pBD-GAL4, strain YRG2)
- fold change in affinity relative to WT PCNA (Y2H generation time) (pol30-79): 0.5 fold
- fold change in affinity relative to WT PCNA (Y2H generation time) (pol30-Rad27E6): 1.5 fold
- fold change in affinity relative to WT PCNA (Y2H generation time) (pol30-Rad27L2): 1.5 fold
